# Results taken from patent US20170298146A1 (MODIQUEST B V, published 2017).
# Non-standard residues stand in square brackets, D forms with d. No end group written: not given here. Cit = NC(=O)NCCC[C@H](N)C(=O)O
# T1: Histone 2A citrulline-containing peptide 10 (human, also: biotin label)
# T1 peptide: TRIIP[Cit]HLQLAI
# T2: Histone 2A citrulline-containing peptide 4 (human, also: biotin label)
# T2 peptide: QFPVG[Cit]VHRLLR
# T3: Histone 2A citrulline-containing peptide 1 (human, also: biotin label)
# T3 construct: also called AAASGXGKQGGK
# T3 peptide: AAASG[Cit]GKQGGK
# T4: Histone 2A citrulline-containing peptide 11 (human, also: biotin label)
# T4 peptide: LQLAI[Cit]NDEELN
# T5: Histone 2A citrulline-containing peptide 7 (human, also: biotin label)
# T5 peptide: GNYSE[Cit]VGAGAP
# T6: Histone 2A citrulline-containing peptide 12 (human, also: biotin label)
# T6 peptide: NKLLG[Cit]VTIAQG
# Assays:
# [1] = molecular target: PREDICTED: similar to 60S ribosomal protein L29 (Cell surface heparin-binding protein HIP) [Homo sapiens] (Homo sapiens); test: IP from huPAD4 deiminated HEK293 lysate, nLC LTQ FTMS, emPAI; against RhmAb2.101
# Method: Beads were subjected to three washes with 1 ml IPP500, one wash with 1 ml IPP150 (10 mM Tris/HC1 pH 8.0, 150 mM NaCl, 0.1% NP40 and 0.1% TWEEN®-20), and subsequently incubated at room temperature with 300 μl deiminated HEK293 lysate for two hours under constant rotation. Beads were washed three times with 1 ml of IPP150 after which a small part has been used for SDS-PAGE electrophoresis to determine if the IP procedure with the HEK293 cells was successful.
# To remove PEGs from the immunoprecipitated proteins, they were loaded on a 15% SDS-PAGE gel and run shortly. […] Samples were diluted 50 fold before subjecting them to nLC LTQ FTMS ULTRA analysis.
# [2] = molecular target: T1, Histone 2A citrulline-containing …; test: peptide ELISA, 0.000128 ug/well
# Method: (§1) Biotin and citrulline-containing peptides derived from histone 2A were immobilized on NEUTRAVIDIN®-coated 96-well ELISA plates (0.3 μg/well). CFC-1 and CFC-0 were coated at the same concentration and served as positive and negative controls respectively for specific anti-citrulline reactivity and as coating controls. Non-coated wells were used to test for aspecific binding of the antibodies. […] Detection of bound anti-citrulline antibodies was performed by incubating the wells with rabbit-anti-human-HRP (1:2000) for one hour at RT followed by incubation with TMB substrate. The resulting OD (y-axis) is a measure for antibody binding.
# (§2) Ninety-six-well ELISA plates were coated with NEUTRAVIDIN® (0.1 μg/well) by overnight incubation at 4° C. Wells were washed five times with PBS-TWEEN®-20 (PBS-T) and blocked by a one-hour incubation with PBS-T+1% Bovine serum albumin (BSA) at room temperature (RT). After five more washes with PBS-T, wells were incubated for one hour at RT with histone-derived citrulline and biotin-containing peptides (0.3 μg/well). […] Wells were washed five times with PBS-T and incubated with rabbit-anti-human-HRP (1:2000) for one hour at RT followed by five washes with PBS-T and three wash steps with PBS. Wells were incubated for five minutes with TMB substrate before stopping the reaction with 2 M H₂SO₄. Optical density was measured by 450 nm and is a measure for the affinity of the antibodies used.
# [3] = molecular target: T7, huPAD2 deiminated human recombinant histone H2A (human); test: ELISA, 0.016 ug/well
# T7 construct: also called H2A/p2
# Method: (§3) CFC-1 and CFC-0 were coated at the same concentration and served as positive and negative controls, respectively, for specific anti-citrulline reactivity and as coating controls. Non-coated wells were used to test for aspecific binding of the antibodies. […] Detection of bound anti-citrulline antibodies was performed by incubating the wells with rabbit-anti-human-HRP (1:2000) for one hour at RT followed by incubation with TMB substrate. The resulting OD (y-axis) is a measure for antibody binding. H1=recombinant histone 1; H1/p2=huPAD2 recombinant histone 1; H1/p4=huPAD4 recombinant histone 1 and so forth (x-axis).
# [4] = molecular target: T8, huPAD4 deiminated human recombinant histone H3 (human); test: ELISA, 0.016 ug/well
# T8 construct: also called H3/p4
# Method: as §3
# [5] = molecular target: T9, huPAD2 deiminated human recombinant histone H2B (human); test: ELISA, 0.016 ug/well
# T9 construct: also called H2B/p2
# Method: as §3
# [6] = molecular target: T10, huPAD4 deiminated human recombinant histone H2A (human); test: ELISA, 0.016 ug/well
# T10 construct: also called H2A/p4; huPAD4 deiminated histone 2A
# Method: as §3
# [7] = molecular target: T11, huPAD4 deiminated human recombinant histone H2B (human); test: ELISA, 0.016 ug/well
# T11 construct: also called H2B/p4
# Method: as §3
# [8] = molecular target: T12, human recombinant histone H4 (human, UniProt P62805 2-103); test: ELISA, 0.016 ug/well
# Method: as §3
# [9] = molecular target: T13, huPAD2 deiminated human recombinant histone H3 (human); test: ELISA, 0.016 ug/well
# T13 construct: also called H3/p2
# Method: as §3
# [10] = molecular target: T14, CFC-1; test: ELISA, 0.016 ug/well
# T14 construct: Positive control for anti-citrulline reactivity; also called cfc1 XG
# Method: as §3
# [11] = molecular target: T15, human recombinant histone H2A (human); test: ELISA, 0.016 ug/well
# T15 construct: Non-deiminated
# Method: as §3
# [12] = molecular target: T16, human recombinant histone H2B (human); test: ELISA, 0.016 ug/well
# T16 construct: Non-deiminated
# Method: as §3
# [13] = molecular target: T2, Histone 2A citrulline-containing …; test: peptide ELISA, 0.0023 ug/well
# Method: as §1, §2
# [14] = molecular target: T1, Histone 2A citrulline-containing …; test: peptide ELISA, 0.0023 ug/well
# Method: as §1, §2
# [15] = molecular target: T3, Histone 2A citrulline-containing …; test: peptide ELISA, 0.0023 ug/well
# Method: as §1, §2
# [16] = molecular target: T4, Histone 2A citrulline-containing …; test: peptide ELISA, 0.0023 ug/well
# Method: as §1, §2
# [17] = molecular target: T14, CFC-1; test: peptide ELISA, 0.0023 ug/well
# Method: as §1, §2
# [18] = molecular target: T5, Histone 2A citrulline-containing …; test: peptide ELISA, 0.0023 ug/well
# Method: as §1, §2
# [19] = molecular target: T6, Histone 2A citrulline-containing …; test: peptide ELISA, 0.0023 ug/well
# Method: as §1, §2
# [20] = molecular target: T7, huPAD2 deiminated human recombinant …; test: ELISA, 10 ug/well
# Method: as §3
# [21] = molecular target: T8, huPAD4 deiminated human recombinant …; test: ELISA, 10 ug/well
# Method: as §3
# [22] = molecular target: T9, huPAD2 deiminated human recombinant …; test: ELISA, 10 ug/well
# Method: as §3
# [23] = molecular target: T10, huPAD4 deiminated human recombinant …; test: ELISA, 10 ug/well
# Method: as §3
# [24] = molecular target: T11, huPAD4 deiminated human recombinant …; test: ELISA, 10 ug/well
# Method: as §3
# [25] = molecular target: T12, human recombinant histone H4; test: ELISA, 10 ug/well
# Method: as §3
# [26] = molecular target: T13, huPAD2 deiminated human recombinant …; test: ELISA, 10 ug/well
# Method: as §3
# [27] = molecular target: T14, CFC-1; test: ELISA, 10 ug/well
# Method: as §3
# [28] = molecular target: T15, human recombinant histone H2A; test: ELISA, 10 ug/well
# Method: as §3
# [29] = molecular target: T16, human recombinant histone H2B; test: ELISA, 10 ug/well
# Method: as §3
binder,measurement,setting,value
"RhmAb2.102 (antibody, human IgG1, lambda, Human IgG1 lambda; also called Rhm2.102) heavy: not shown light: QSVLTQPPSMSAAPGQKVTISCSGSSSNIGNNYVSWYQQVPGTAPKLLIYDDNKRPSGIPGRFSGSKSATSATLGITGLQAGDEADYYCGSWDDNLSVVLFGGGTKLTVLGQPKAAPSVTLFPPSSEELQANKATLVCLISDFYPGAVTVAWKADSSPVKAGVETTTPSKQSNNKYAASSYLSLTPEQWKSHRSYSCQVTHEGSTVEKTVAPTECS",Ratio 102/101,[1],1
same,OD,[2],0.057 OD
same,OD,[3],0.628 OD
same,OD,[4],0.076 OD
same,OD,[5],0.052 OD
same,OD,[6],0.426 OD
same,OD,[7],0.052 OD
same,OD,[8],0.061 OD
same,OD,[9],0.155 OD
same,OD,[10],0.702 OD
same,OD,[11],0.057 OD
same,OD,[12],0.065 OD
same,OD,[13],0.078 OD
same,OD,[14],0.068 OD
same,OD,[15],0.3 OD
same,OD,[16],0.057 OD
same,OD,[17],0.916 OD
same,OD,[18],0.064 OD
same,OD,[19],0.059 OD
same,OD,[20],3.41 OD
same,OD,[21],1.31 OD
same,OD,[22],0.31 OD
same,OD,[23],3.42 OD
same,OD,[24],0.229 OD
same,OD,[25],0.825 OD
same,OD,[26],2.44 OD
same,OD,[27],3.48 OD
same,OD,[28],0.428 OD
same,OD,[29],0.247 OD
